T1: minor histocompatibility antigen HA-1, immunogenic H variant peptide on HLA-A*02:01 (human)
T1 peptide: VLHDDLLEA

B1: TCR G (TCR, V domains shown)
Valpha: SQQGEEDPQALSIQEGENATMNCSYKTSINNLQWYRQNSGRGLVHLILIRSNEREKHSGRLRVTLDTSKKSSSLLITASRAADTASYFCAGTGANNLFFGTGTRLTVIP
Vbeta: DTGVSQDPRHKITKRGQNVTFRCDPISEHNRLYWYRQTLGQGPEFLTYFQNEAQLEKSRLLSDRFSAERPKGSFSTLEIQRTEQGDSAMYLCASSLIRGETQYFGPGTRLLVL
B2: TCR Q (TCR, V domains shown)
Valpha: GENVEQHPSTLSVQEGDSAVIKCTYSDSASNYFPWYKQELGKRPQLIIDIRSNVGEKKDQRIAVTLNKTAKHFSLHITETQPEDSAVYFCAASNPTGANSKLTFGKGITLSVRP
Vbeta: B1 Vbeta with I97V, G99N, T101K, Q102L, Y103F, P106S, R109Q, L111S
B3: TCR O (TCR, V domains shown)
Valpha: GENVEQHPSTLSVQEGDSAVIKCTYSDSASNYFPWYKQELGKRPQLIIDIRSNVGEKKDQRIAVTLNKTAKHFSLHITETQPEDSAVYFCAMRNNNDMRFGAGTRLTVKP
Vbeta: B1 Vbeta with I97T, R98T, G99L, E100D, L111T
B4: TCR N (TCR, V domains shown)
Valpha: B3 Valpha with M92A, R93I, N94V, N95G, D97Q, M98F, R99Y, A102T, R105S, K109I
Vbeta: B1 Vbeta with L96E, I97T, R98T, G99L, E100S, T101E, Y103F, L111T
B5: TCR I (TCR, V domains shown)
Valpha: KQEVTQIPAALSVPEGENLVLNCSFTDSAIYNLQWFRQDPGKGLTSLLLIQSSQREQTSGRLNASLDKSSGRSTLYIAASQPGDSATYLCAVRGTTSGTYKYIFGTGTRLKVLA
Vbeta: B1 Vbeta with L96F, I97L, R98A
B6: TCR M (TCR, V domains shown)
Valpha: B5 Valpha with T95S
Vbeta: B1 Vbeta with I97V, R98A
B7: TCR J (TCR, V domains shown)
Valpha: QKEVEQDPGPLSVPEGAIVSLNCTYSNSAFQYFMWYRQYSRKGPELLMYTYSSGNKEDGRFTAQVDKSSKYISLFIRDSQPSDSATYLCAMRATSGTYKYIFGTGTRLKVLA
Vbeta: DTGVSQDPRHKITKRGQNVTFRCDPISEHNRLYWYRQTLGQGPEFLTYFQNEAQLEKSRLLSDRFSAERPKGSFSTLEIQRTEQGDSAMYLCAVPGGSSYNEQFFGPGTRLTVL
B8: TCR T (TCR, V domains shown)
Valpha: SQQGEEDPQALSIQEGENATMNCSYKTSINNLQWYRQNSGRGLVHLILIRSNEREKHSGRLRVTLDTSKKSSSLLITASRAADTASYFCATPSGNTPLVFGKGTRLSVIA
Vbeta: B7 Vbeta with F45L, V94S, P95S, G96Q, G97L, S98A, S99G, Y100V, N101I
B9: TCR S (TCR, V domains shown)
Valpha: DAKTTQPPSMDCAEGRAANLPCNHSTISGNEYVYWYRQIHSQGPQYIIHGLKNNETNEMASLIITEDRKSSTLILPHATLRDTAVYYCIVRASTSGTYKYIFGTGTRLKVLA
Vbeta: B7 Vbeta with V94S, P95S, G96P, S98T, S99V
B10: TCR P (TCR, V domains shown)
Valpha: AQSVSQHNHHVILSEAASLELGCNYSYGGTVNLFWYVQYPGQHLQLLLKYFSGDPLVKGIKGFEAEFIKSKFSFNLRKPSVQWSDTAEYFCAVRDSGAGSYQLTFGKGTKLSVIP
Vbeta: B7 Vbeta with V94S, P95L, G96T, S98T, S99V
B11: TCR K (TCR, V domains shown)
Valpha: DAKTTQPNSMESNEEEPVHLPCNHSTISGTDYIHWYRQLPSQGPEYVIHGLTSNVNNRMASLAIAEDRKSSTLILHRATLRDAAVYYCILRAGSGTYKYIFGTGTRLKVLA
Vbeta: B7 Vbeta with V94S, P95S, G96P, S98T, S99V
B12: TCR B (TCR, V domains shown)
Valpha: SQQGEEDPQALSIQEGENATMNCSYKTSINNLQWYRQNSGRGLVHLILIRSNEREKHSGRLRVTLDTSKKSSSLLITASRAADTASYFCATAPGSGTYKYIFGTGTRLKVLA
Vbeta: DTGVSQDPRHKITKRGQNVTFRCDPISEHNRLYWYRQTLGQGPEFLTYFQNEAQLEKSRLLSDRFSAERPKGSFSTLEIQRTEQGDSAMYLCAAPPDTYNSPLHFGNGTRLTVT
B13: TCR R (TCR, V domains shown)
Valpha: SQQGEEDPQALSIQEGENATMNCSYKTSINNLQWYRQNSGRGLVHLILIRSNEREKHSGRLRVTLDTSKKSSSLLITASRAADTASYFCATEMNSNYQLIWGAGTKLIIKP
Vbeta: DTGVSQDPRHKITKRGQNVTFRCDPISEHNRLYWYRQTLGQGPEFLTYFQNEAQLEKSRLLSDRFSAERPKGSFSTLEIQRTEQGDSAMYLCASSPLKGSNYGYTFGSGTRLTVV
B14: TCR L (TCR, V domains shown)
Valpha: KQEVTQIPAALSVPEGENLVLNCSFTDSAIYNLQWFRQDPGKGLTSLLLIQSSQREQTSGRLNASLDKSSGRSTLYIAASQPGDSATYLCAVTRTGANNLFFGTGTRLTVIP
Vbeta: DTGVSQDPRHKITKRGQNVTFRCDPISEHNRLYWYRQTLGQGPEFLTYFQNEAQLEKSRLLSDRFSAERPKGSFSTLEIQRTEQGDSAMYLCASSLGVLGIGYTFGSGTRLTVV
B15: TCR H (TCR, V domains shown)
Valpha: GENVEQHPSTLSVQEGDSAVIKCTYSDSASNYFPWYKQELGKRPQLIIDIRSNVGEKKDQRIAVTLNKTAKHFSLHITETQPEDSAVYFCAAPLAGGGADGLTFGKGTHLIIQP
Vbeta: DTGVSQDPRHKITKRGQNVTFRCDPISEHNRLYWYRQTLGQGPEFLTYFQNEAQLEKSRLLSDRFSAERPKGSFSTLEIQRTEQGDSAMYLCASSTTLITGYTFGSGTRLTVV
B16: TCR C (TCR, V domains shown)
Valpha: B5 Valpha with G94P, T95R
Vbeta: DTGVSQDPRHKITKRGQNVTFRCDPISEHNRLYWYRQTLGQGPEFLTYFQNEAQLEKSRLLSDRFSAERPKGSFSTLEIQRTEQGDSAMYLCASTELSGNTIYFGEGSWLTVV
B17: TCR E (TCR, V domains shown)
Valpha: AQSVAQPEDQVNVAEGNPLTVKCTYSVSGNPYLFWYVQYPNRGLQFLLKYITGDNLVKGSYGFEAEFNKSQTSFHLKKPSALVSDSALYFCAVRGPTSGTYKYIFGTGTRLKVLA
Vbeta: B1 Vbeta with I97V, R98S, E100N, T101E, Y103F, L111T
B18: TCR X (TCR, V domains shown)
Valpha: GENVEQHPSTLSVQEGDSAVIKCTYSDSASNYFPWYKQELGKRPQLIIDIRSNVGEKKDQRIAVTLNKTAKHFSLHITETQPEDSAVYFCVVLGGAGNMLTFGGGTRLMVKP
Vbeta: B15 Vbeta with T96L, L98V, I99S, T100D
B19: TCR D (TCR, V domains shown)
Valpha: B17 Valpha with G95A
Vbeta: B1 Vbeta with I97V, R98S, E100N, T101E, Y103F, L111T
B20: TCR W (TCR, V domains shown)
Valpha: B17 Valpha with G95D
Vbeta: B1 Vbeta with I97V, R98Q, E100N, T101E, Y103F, L111T
B21: TCR A (TCR, V domains shown)
Valpha: AQSVAQPEDQVNVAEGNPLTVKCTYSVSGNPYLFWYVQYPNRGLQFLLKYITGDNLVKGSYGFEAEFNKSQTSFHLKKPSALVSDSALYFCAVRGGSYKYIFGTGTRLKVLA
Vbeta: B7 Vbeta with V94S, P95T, G96P, S98T, S99V
B22: TCR F (TCR, V domains shown)
Valpha: GENVEQHPSTLSVQEGDSAVIKCTYSDSASNYFPWYKQELGKRPQLIIDIRSNVGEKKDQRIAVTLNKTAKHFSLHITETQPEDSAVYFCAAHLTGGGNKLTFGTGTQLKVEL
Vbeta: DTGVSQDPRHKITKRGQNVTFRCDPISEHNRLYWYRQTLGQGPEFLTYFQNEAQLEKSRLLSDRFSAERPKGSFSTLEIQRTEQGDSAMYLCASSSRAGGETQYFGPGTRLLVL
B23: TCR V (TCR, V domains shown)
Valpha: AQTVTQSQPEMSVQEAETVTLSCTYDTSENNYYLFWYKQPPSRQMILVIRQEAYKQQNATENRFSVNFQKAAKSFSLKISDSQLGDTAMYFCALYSGAGSYQLTFGKGTKLSVIP
Vbeta: B13 Vbeta with P96L, L97A, K98A, S100M, Y102T, G103E, Y104A, T105F, S108Q

Changes are numbered by the printed parent chain. “And” between values parts separate entries of the source, which are not always exact repeats. Identical values can stand only once.

The values that follow come from patent US20240270813A1 (UNIVERSITY OF PITTSBURGH OF THE COMMONWEALTH SYSTEM OF …, published 2024).

For the first assay, the target named is T1, minor histocompatibility antigen HA-1, …. Kind of assay: CD69 on TCR-transduced Jurkat J.RT3-T3.5-CD8; overnight with A*0201 LCLs (1:1) and titrated HA-1 H peptide; given as a range, upper bound given; full-length, on cells.
As for B1, the EC50 of peptide is ≤ 100 ng/mL and ≤ 100 nM. For B2, the EC50 of peptide was ≤ 1000 ng/mL and ≤ 1 µM. For B3, the EC50 of peptide is ≤ 100 ng/mL and ≤ 100 nM.

Regarding B4, the EC50 of peptide is ≤ 100 ng/mL and ≤ 100 nM.

Regarding B5, the EC50 of peptide is ≤ 100 ng/mL and ≤ 100 nM. On the same count and under the same terms, under B6 stands ≤ 100 ng/mL and ≤ 100 nM.

In the case of B7, the EC50 of peptide is ≤ 100 ng/mL and ≤ 100 nM.

For B8, the EC50 of peptide is ≤ 1000 ng/mL and ≤ 1 µM. For the molecule B9, the EC50 of peptide is ≤ 1000 ng/mL and ≤ 1 µM.

For B10, the EC50 of peptide was ≤ 100 ng/mL and ≤ 100 nM. In the case of B11, the EC50 of peptide is ≤ 100 ng/mL and ≤ 100 nM. Still for that read-out and setting: under B12 stands ≤ 100 ng/mL and ≤ 100 nM; under B13, ≤ 1000 ng/mL and ≤ 1 µM; under B14, ≤ 100 ng/mL and ≤ 100 nM. The same measure, in the same setting: under B15 stands ≤ 100 ng/mL and ≤ 100 nM.

The target is the same in another assay. Kind of assay: multimer staining.
Regarding B16, the binding result is listed as “recognises”. Still for that read-out and setting: the same measure for B17: “recognises”; for B18: “recognises”. On the same count and under the same terms, under B19 stands “recognises”; under B20, “recognises”; under B21, “recognises”. Still for that read-out and setting: the same measure for B22: “recognises”. Take B23: the binding result is on record as “recognises”.
